Source: paper doi:10.1101/2024.12.05.627070

T1: Rad51 (full length, recombinant) (S. cerevisiae), P25454
T1 chain: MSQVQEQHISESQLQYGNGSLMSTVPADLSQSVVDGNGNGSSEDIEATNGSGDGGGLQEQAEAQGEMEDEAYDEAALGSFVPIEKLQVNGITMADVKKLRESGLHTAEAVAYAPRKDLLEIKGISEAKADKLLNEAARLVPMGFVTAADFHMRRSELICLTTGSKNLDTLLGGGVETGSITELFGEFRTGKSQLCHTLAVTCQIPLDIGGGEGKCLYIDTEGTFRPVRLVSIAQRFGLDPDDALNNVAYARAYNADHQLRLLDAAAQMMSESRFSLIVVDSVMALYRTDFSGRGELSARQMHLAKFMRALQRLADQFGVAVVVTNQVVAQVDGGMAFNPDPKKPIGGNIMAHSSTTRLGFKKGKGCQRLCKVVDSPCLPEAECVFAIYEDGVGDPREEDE

B1: Rad51 (full length, recombinant), P25454 1-400 (natural protein)
chain: T1 chain

Legend:
[1] = biological target: Rad52 (295-408) (S. cerevisiae); assay: SEC-SAXS
[2] = biological target: Rad51 (in yeast cells) (S. cerevisiae) (UniProt P25454); assay: co-IP
[3] = biological target: T1, Rad51 (full length, recombinant) (S. …); assay: SEC-SAXS; settings: remark: other sources report otherwise

| Molecule | loss of interaction (%) against WT Rad52 [2] [%] | also measured |
| --- | --- | --- |
| Rad51 (full length, recombinant) (from UniProt P25454 1-400) (natural protein) |  | stoichiometry N [1]: 1 |
| Rad52-K340E-FLAG (natural protein) | 30 |  |
| Rad52-T349A-FLAG (natural protein) | 85 |  |
| B1 |  | stoichiometry N [3]: 4 |
